Source: patent US20040087498A1, “Modified factor VII” (Novo Nordisk Health Care AG, priority 1991, published 2004)

Experiments:
[1] = molecular target: T1, cell-surface tissue factor on rat smooth muscle cells (Rattus norvegicus, UniProt P42533); assay: Dose-dependent cell-surface chromogenic activity on rat smooth muscle cells; assay type: cell-based
T1 construct: endogenous in cells; host or cells: rat vascular smooth muscle cells
T1 sequence (P42533 29-295): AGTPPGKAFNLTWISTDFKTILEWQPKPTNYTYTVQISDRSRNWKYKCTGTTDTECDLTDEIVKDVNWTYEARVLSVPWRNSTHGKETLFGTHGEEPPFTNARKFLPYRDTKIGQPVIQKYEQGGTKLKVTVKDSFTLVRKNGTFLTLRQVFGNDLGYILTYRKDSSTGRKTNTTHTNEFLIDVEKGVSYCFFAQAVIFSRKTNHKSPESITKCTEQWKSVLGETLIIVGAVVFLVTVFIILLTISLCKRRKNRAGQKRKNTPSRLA
Procedure: Rat vascular smooth muscle cells were plated into 96-well culture dishes at 4,000 cells per well in growth medium supplemented with 1% fetal calf serum (as in Table 4 without 10% fetal calf serum). […] The cells were incubated with the Factor VII mixtures for 2 hours at 37° C. After incubation, the cells were washed and incubated with 50 μl of 200 nM Factor X in tris buffered saline for 5 minutes at room temperature. Each well had 25 μl of 0.5 M EDTA and 25 μl of […] S-2222 (Kabi Pharmacia) added to it, and the plates were incubated for 40 minutes at room temperature. Chromogenic activity was analyzed at 405 nm in a microplate reader as described above.

[2] = system: fibrin deposition associated with endotoxemia; assay: Fibrin deposition in kidneys and lungs in rabbits; assay type: in vivo, rabbit
[3] = system: cell-surface tissue factor on baboon smooth muscle cells; assay: Cell-surface Factor Xa generation on baboon SMCs; assay type: cell-based
Text: A cell-surface chromogenic assay was developed, essentially as described in Example VIII above, to measure the efficacy of DEGR-FVIIa to block FVIIa binding to cell-surface tissue factor and the subsequent conversion of Factor X to Factor Xa on monolayers of baboon smooth muscle cells (SMCs). This method is a modification of those described by Sakai et al., J. Bio. Chem. 264:9980-9988 (1989) and Wildgoose et al., Proc. Natl. Acad. Sci. USA. 87:7290-7294 (1990). Baboon SMCs were obtained from the University of Washington, Seattle, Wash., and were cultured from aortic explants. The baboon SMCs were plated into 96-well culture dishes at a concentration of 8,000 cells/well in 200 μl/well DMEM culture media supplemented with 10% fetal calf serum, and maintained in this media for 4 days at 37° C. in 5% CO2. At the time of assay 110 μl of culture media was removed, and increasing concentrations of FVIIa or FVIIa in combination with DEGR-FVIIa were added to wells. A standard curve for FVIIa concentration was generated, ranging from 5 nM to 0.04 nM. […] Twenty-five microliters per well of 0.8 mM S-2222, a factor Xa-specific chromogenic substrate, in Tris buffer was added and the absorbance at 405 nm read after 60 mins in a Thermomax microplate reader (Molecular Devices Corp., Menlo Park, Calif.).

Question: For “DEGR-Factor VIIa: Recombinant human Factor VIIa with its active site derivatized by Dansyl-L-Glu-Gly-Arg-chloromethyl Ketone (DEGRck)”, which “inhibition of the chromogenic activity” value ([1]; 1:1 molar ratio of DEGR-Factor VIIa:Factor VIIa) is on record?
Answer: approximately 95%

Question: What about the OD405 ([1]; DEGR-Factor VIIa 1.56 nM co-incubated with 100 nM Factor VIIa) of the same substance?
Answer: .116

Question: And the OD405 ([1]; DEGR-Factor VIIa 6.25 nM co-incubated with 100 nM Factor VIIa)?
Answer: .073

Question: What about the OD405 ([1]; DEGR-Factor VIIa 25.00 nM co-incubated with 100 nM Factor VIIa) of the same substance?
Answer: .026

Question: What about the OD405 ([1]; DEGR-Factor VIIa 100.00 nM co-incubated with 100 nM Factor VIIa) of the same substance?
Answer: .014

Question: And the OD405 ([1]; DEGR-Factor VIIa .39 nM co-incubated with 100 nM Factor VIIa)?
Answer: .176

Question: What about the “fibrin deposition in kidneys and lungs” value [2] of the same substance?
Answer: dose-response effect for blocking fibrin deposition in kidneys and lungs

Question: And the “inhibition in the generation of Factor Xa chromogenic activity” value ([3]; 10-fold lower level of DEGR-FVIIa than FVIIa (5 nM))?
Answer: 40%

Question: What about the “inhibition of the chromogenic activity” value ([3]; equal molar ratio of DEGR-FVIIa to FVIIa (5 nM)) of the same substance?
Answer: > 90%
